According to patent publication US20230165967A1 (TAE LIFE SCIENCES, published 2023):
Read-outs that look alike come from different tables or passages of the source.

T1: FcγRIIa (CD32) (Sino Biological, cat #10374-H08H) (UniProt P12318 34-218)
T1 sequence (looked up): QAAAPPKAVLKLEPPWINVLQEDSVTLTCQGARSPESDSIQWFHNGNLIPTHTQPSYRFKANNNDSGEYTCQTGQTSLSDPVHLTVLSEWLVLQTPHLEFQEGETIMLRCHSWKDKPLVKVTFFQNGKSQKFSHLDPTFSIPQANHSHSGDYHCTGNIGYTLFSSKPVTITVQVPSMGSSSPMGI

T2: recombinant human soluble extracellular domain (ECD) of Trop2 (human, UniProt P09758 27-274)
T2 construct: extracellular domain; Bought protein
T2 sequence (looked up): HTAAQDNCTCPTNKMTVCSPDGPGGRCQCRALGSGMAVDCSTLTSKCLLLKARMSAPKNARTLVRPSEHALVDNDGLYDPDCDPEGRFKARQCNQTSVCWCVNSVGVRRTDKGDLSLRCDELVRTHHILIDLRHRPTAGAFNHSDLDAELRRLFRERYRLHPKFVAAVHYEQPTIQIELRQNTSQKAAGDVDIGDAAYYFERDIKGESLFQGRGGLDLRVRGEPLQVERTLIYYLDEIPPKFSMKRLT


How the values were obtained:
[1] = biological target: T3, recombinant human soluble ECD of CD64/FCGRIA (human, UniProt P12314 16-292); assay: ELISA: plate coated with recombinant human CD64/FCGRIA ECD, antibody titrated, HRP goat anti-human Fc, OD650
T3 construct: extracellular domain; also called FcγRI
T3 sequence (P12314 16-292): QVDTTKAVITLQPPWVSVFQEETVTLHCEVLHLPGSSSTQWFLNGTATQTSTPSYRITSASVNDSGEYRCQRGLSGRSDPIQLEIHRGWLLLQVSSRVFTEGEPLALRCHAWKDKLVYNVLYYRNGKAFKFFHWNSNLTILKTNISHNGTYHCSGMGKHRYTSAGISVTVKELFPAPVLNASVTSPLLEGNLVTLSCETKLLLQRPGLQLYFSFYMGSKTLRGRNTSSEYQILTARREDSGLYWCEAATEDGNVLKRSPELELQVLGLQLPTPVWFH
Description: (§1) FcγRI binding was evaluated using an enzyme linked immunoassay (ELISA). Briefly, 96-well ELISA plates were coated with recombinant human soluble ECD of CD64/FCGRIA (Sino Biological, Inc. Beijing, China) in 1×PBS (pH7.4) coating buffer. Subsequently the plates were washed and blocked with ELISA blocking buffer. […] After washing to remove unbound antibodies, the bound antibodies were detected with horseradish peroxidase (HRP) conjugated goat anti-human Fc-specific polyclonal antibody (Jackson ImmunoResearch, West Grove, Pa.). After washing to remove the unbound detection antibody, a slow kinetic substrate solution of tetramethylbenzidine (TMB) was added to the wells where color develops in proportion to the amount of testing samples. The optical density (OD) of the color was measured at 650 nm and was used for determination of the amount of testing samples bound to FcγRI. Detectable binding of antibodies over the range of test concentrations was analyzed using the one-site binding, nonlinear regression analysis with GraphPad Prism.

[2] = biological target: T4, recombinant human FcRn (Sino Biological) (human, UniProt P55899 24-297; P61769 21-119); assay: ELISA at pH 6.0: plate coated with recombinant human FcRn, antibody titrated, HRP goat anti-human Fc, OD650
T4 sequence (P55899 24-297 limits assumed, chain 1 of 2): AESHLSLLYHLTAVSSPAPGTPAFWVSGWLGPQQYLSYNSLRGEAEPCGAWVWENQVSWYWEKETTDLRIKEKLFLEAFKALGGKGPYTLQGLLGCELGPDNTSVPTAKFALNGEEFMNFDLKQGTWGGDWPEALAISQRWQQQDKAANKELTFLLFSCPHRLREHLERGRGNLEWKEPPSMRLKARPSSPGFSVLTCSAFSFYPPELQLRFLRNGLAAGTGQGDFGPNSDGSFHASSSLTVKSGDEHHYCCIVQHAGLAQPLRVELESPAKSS
T4 sequence (P61769 21-119 limits assumed, chain 2 of 2): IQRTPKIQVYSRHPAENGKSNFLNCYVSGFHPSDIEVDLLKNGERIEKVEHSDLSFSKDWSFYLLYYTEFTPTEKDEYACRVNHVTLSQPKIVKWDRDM
Description: (§2) FcRn binding was evaluated using an enzyme linked immunoassay (ELISA). Briefly, 96-well ELISA plates were coated with of recombinant human FcRn (Sino Biological, Inc, Beijing, China) in 1×PBS (pH 6.0) coating buffer. Subsequently, the plates were washed and blocked with ELISA blocking buffer. […] After washing to remove unbound antibodies, the bound antibodies were detected with horseradish peroxidase (HRP) conjugated goat anti-human Fc-specific polyclonal antibody (Jackson ImmunoResearch, West Grove, Pa.). After washing to remove unbound detection antibody, a slow kinetic substrate solution of tetramethylbenzidine (TMB) was added to the wells where color develops in proportion to the amount of testing samples. The optical density (OD) of the color was measured at 650 nm and was used for determination of the amount of testing samples bound to FcRn. Detectable binding of antibodies over the range of test concentrations was analyzed using the one-site binding, nonlinear regression analysis with GraphPad Prism.

[3] = biological target: T5, recombinant human soluble ECD of hCD16a/FCGRIIIA (human, UniProt P08637 17-208); assay: ELISA: plate coated with recombinant human CD16a/FCGRIIIA ECD, antibody titrated 0.005-80 ug/ml, HRP goat anti-human Fc, OD650
T5 construct: extracellular domain; also called FcγRIIIa
T5 sequence (P08637 17-208): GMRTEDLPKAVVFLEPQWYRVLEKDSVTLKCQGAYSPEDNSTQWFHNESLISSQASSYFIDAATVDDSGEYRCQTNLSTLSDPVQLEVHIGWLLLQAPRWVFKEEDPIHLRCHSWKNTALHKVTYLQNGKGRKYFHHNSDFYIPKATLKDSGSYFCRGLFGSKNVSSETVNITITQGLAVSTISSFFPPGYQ
Description: FcγRIIIa binding was evaluated using an enzyme linked immunoassay (ELISA). Briefly, 96-well ELISA plates were coated with of recombinant human soluble ECD of hCD16a/[sequence] (Sino Biological, Inc, Beijing, China) in 1×PBS (pH7.4) coating buffer. Subsequently the plates were washed and blocked with ELISA blocking buffer. […] After washing to remove unbound antibodies, the bound antibodies were detected with horseradish peroxidase (HRP) conjugated goat anti-human Fc-specific polyclonal antibody (Jackson ImmunoResearch, West Grove, Pa.). After washing to remove unbound detection antibody, a slow kinetic substrate solution of tetramethylbenzidine (TMB) was added to the wells where color develops in proportion to the amount of testing samples. The optical density (OD) of the color was measured at 650 nm and was used for determination of the amount of testing samples bound to FcγRIIa. Detectable binding of antibodies over the range of test concentrations was analyzed using the one-site binding, nonlinear regression analysis with GraphPad Prism.

[4] = biological target: T1, FcγRIIa (CD32) (Sino Biological, cat …); assay: Sandwich ELISA: anti-His capture of His-tagged FcγRIIA mixed with titrated antibody, HRP goat anti-human IgG Fc, OD650
Description: Binding of antibodies to the low affinity FcγRIIA receptor was determined by a modified sandwich format ELISA. […] Wells were then blocked with PBS containing BSA. […] After washing with PBS, a 1:3,000 dilution of horseradish peroxidase (HRP)-labeled goat anti-hIgG Fc, JacksonImmunoResearch) in PBS-T plus 1% BSA was added to detect His-tag captured FcγRIIA and Mab complexes. The results were visualized by the addition of tetramethylbenzidine (TMB) and the optical density (OD) measured at 650 nm. Data representing detectable binding of antibodies to FcγRIIA and captured by anti-his tag Abs over the range of Fc variant test concentrations was analyzed by one-site binding nonlinear regression analysis using GraphPad Prism software.

[5] = biological target: T4, recombinant human FcRn (Sino Biological); assay: ELISA at pH 6.0: plate coated with recombinant human FcRn, antibody titrated, HRP goat anti-human Fc, OD650; remark: listed apart in the source
Description: as §2

[6] = biological target: human C1q (sigma Cat #C1740) (human, UniProt P02745 23-245; P02746 28-253; P02747 29-245); assay: ELISA: plate coated with antibody at 1 ug/ml, human C1q titrated 0.625-40 ug/ml, rabbit anti-human C1q then HRP goat anti-rabbit, OD650
Chain of human C1q (sigma Cat #C1740) (P02745 23-245 limits assumed, chain 1 of 3): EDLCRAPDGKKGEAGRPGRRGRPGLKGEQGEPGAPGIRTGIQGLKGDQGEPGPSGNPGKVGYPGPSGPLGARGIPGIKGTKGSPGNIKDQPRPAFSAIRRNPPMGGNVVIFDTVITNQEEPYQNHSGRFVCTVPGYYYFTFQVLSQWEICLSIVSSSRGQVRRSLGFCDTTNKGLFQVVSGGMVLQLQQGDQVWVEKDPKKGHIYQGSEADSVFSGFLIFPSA
Chain of human C1q (sigma Cat #C1740) (P02746 28-253 limits assumed, chain 2 of 3): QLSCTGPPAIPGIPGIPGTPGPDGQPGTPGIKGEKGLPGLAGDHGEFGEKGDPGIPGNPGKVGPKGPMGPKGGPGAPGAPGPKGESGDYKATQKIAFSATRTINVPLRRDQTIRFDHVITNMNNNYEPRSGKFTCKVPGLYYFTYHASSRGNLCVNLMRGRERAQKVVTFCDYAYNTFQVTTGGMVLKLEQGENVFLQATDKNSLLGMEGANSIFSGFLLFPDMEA
Chain of human C1q (sigma Cat #C1740) (P02747 29-245 limits assumed, chain 3 of 3): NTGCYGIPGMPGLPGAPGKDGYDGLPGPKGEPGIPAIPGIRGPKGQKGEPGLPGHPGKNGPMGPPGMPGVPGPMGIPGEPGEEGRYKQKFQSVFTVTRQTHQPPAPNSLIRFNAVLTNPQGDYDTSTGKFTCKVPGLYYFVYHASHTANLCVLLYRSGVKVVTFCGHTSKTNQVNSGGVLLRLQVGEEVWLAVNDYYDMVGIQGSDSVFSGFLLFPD
Description: Subsequently the plates were washed and blocked with ELISA blocking buffer (PBS containing 1% BSA). […] A slow kinetic substrate solution of tetramethylbenzidine (TMB) was added and the optical density (OD) of the color was measured at 650 nm. The data representing detectable binding of antibodies over the range of test concentrations was analyzed by one-site binding nonlinear regression analysis using GraphPad Prism software.

[7] = biological target: T2, recombinant human soluble extracellular …; assay: ELISA: plate coated with recombinant human Trop2 ECD, antibody titrated 0.0003-20 nM, HRP goat anti-human Fc, OD650
Description: Target antigen binding was evaluated using an enzyme linked immunoassay (ELISA). Briefly, 96-well ELISA plates were coated with 0.05-0.075 ug of recombinant human soluble extracellular domain (ECD) of Her2/ErbB2 or EGFR or Trop2 (Sino Biologicals, Inc, Beijing, China) or 0.075 ug of recombinant human CDH3 full-length (Abnova, Taiwan). Subsequently, the plates were washed and blocked with ELISA blocking buffer. […] After washing to remove unbound detection antibody, a slow kinetic substrate solution of tetramethylbenzidine (TMB) was added to the wells where color develops in proportion to the amount of testing samples. The optical density (OD) of the color was measured at 650 nm and was used for determination of the amount of testing samples bound to the target antigen. Detectable binding of antibodies over the range of test concentrations was analyzed using the one-site binding, nonlinear regression analysis with GraphPad Prism.

[8] = biological target: T5, recombinant human soluble ECD of …; assay: ELISA: plate coated with recombinant human CD16a/FCGRIIIA ECD, antibody titrated 0.005-80 ug/ml, HRP goat anti-human Fc, OD650; remark: listed apart in the source
[9] = biological target: T3, recombinant human soluble ECD of …; assay: ELISA: plate coated with recombinant human CD64/FCGRIA ECD, antibody titrated, HRP goat anti-human Fc, OD650; remark: listed apart in the source
Description: as §1

Binder	EC50 (read off the curve) [1]	binding result [4]	binding result [5]	binding result [6]	EC50 (read off the curve) [7]	further results
Anti-EGFR Ab No. 3 Wild Type (antibody, human IgG1, human IgG1 constant region; also called Anti-EGFR Mab No. 3; anti-EGFR mAb No. 3) heavy: not shown light: DIQMTQSPSSLSASVGDRVTITCRSSQNIVHSNGNTYLDWYQQTPGKAPKLLIYKVSNRFSGVPSRFSGSGSGTDFTFTISSLQPEDIATYYCFQYSHVPWTFGQGTKLQITREVAAPSVFIFPPSDEQLKSGTASVVCLLNNFYPREAKVQWKVDNALQSGNSQESVTEQDSKDSTYSLSSTLTLSKADYEKHKVYACEVTHQGLSSPVTKSFNRGEC	~0.05 µg/mL					binding result [2]: binds; EC50 (read off the curve) [3]: ~2 µg/mL
Anti-EGFR Ab No. 3 L328C (antibody, human IgG1, Fc variant; wild-type light chain, this heavy chain reads VDKRV where the wild type reads VDKKV; also called Anti-EGFR Mab No. 3 single mutant; single mutation L328C) heavy: not shown light: DIQMTQSPSSLSASVGDRVTITCRSSQNIVHSNGNTYLDWYQQTPGKAPKLLIYKVSNRFSGVPSRFSGSGSGTDFTFTISSLQPEDIATYYCFQYSHVPWTFGQGTKLQITREVAAPSVFIFPPSDEQLKSGTASVVCLLNNFYPREAKVQWKVDNALQSGNSQESVTEQDSKDSTYSLSSTLTLSKADYEKHKVYACEVTHQGLSSPVTKSFNRGEC	~0.1 µg/mL					
Anti-EGFR Ab No. 3 L234A, L235A (antibody, human IgG1, L234A L235A, Fc variant; wild-type light chain; also called Anti-EGFR Mab No. 3 double mutant; double mutation L234A and L235A) heavy: not shown light: DIQMTQSPSSLSASVGDRVTITCRSSQNIVHSNGNTYLDWYQQTPGKAPKLLIYKVSNRFSGVPSRFSGSGSGTDFTFTISSLQPEDIATYYCFQYSHVPWTFGQGTKLQITREVAAPSVFIFPPSDEQLKSGTASVVCLLNNFYPREAKVQWKVDNALQSGNSQESVTEQDSKDSTYSLSSTLTLSKADYEKHKVYACEVTHQGLSSPVTKSFNRGEC	~4 µg/mL					binding result [2]: binds
Anti-EGFR Ab No. 3 L234A, L235A, L328C (antibody, human IgG1, L234A L235A, Fc variant; wild-type light chain, this heavy chain reads VDKRV where the wild type reads VDKKV; also called Anti-EGFR Mab No. 3 triple mutant; triple mutation L234A, L235A, and L328C) heavy: QVQLQQSGAEVKKPGSSVKVSCKASGYTFTNYYIYWVRQAPGQGLEWIGGINPTSGGSNFNEKFKTRVTITADESSTTAYMELSSLRSEDTAFYFCTRQGLWFDSDGRGFDFWGQGTTVTVSSASTKGPSVFPLAPSSKSTSGGTAALGCLVKDYFPEPVTVSWNSGALTSGVHTFPAVLQSSGLYSLSSVVTVPSSSLGTQTYICNVNHKPSNTKVDKRVEPKSCDKTHTCPPCPAPEAAGGPSVFLFPPKPKDTLMISRTPEVTCVVVDVSHEDPEVKFNWYVDGVEVHNAKTKPREEQYNSTYRVVSVLTVLHQDWLNGKEYKCKVSNKACPAPIEKTISKAKGQPREPQVYTLPPSREEMTKNQVSLTCLVKGFYPSDIAVEWESNGQPENNYKTTPPVLDSDGSFFLYSKLTVDKSRWQQGNVFSCSVMHEALHNHYTQKSLSLSPGK light: DIQMTQSPSSLSASVGDRVTITCRSSQNIVHSNGNTYLDWYQQTPGKAPKLLIYKVSNRFSGVPSRFSGSGSGTDFTFTISSLQPEDIATYYCFQYSHVPWTFGQGTKLQITREVAAPSVFIFPPSDEQLKSGTASVVCLLNNFYPREAKVQWKVDNALQSGNSQESVTEQDSKDSTYSLSSTLTLSKADYEKHKVYACEVTHQGLSSPVTKSFNRGEC						binding result [3]: no binding (tested: 80 ug/mL)
Anti-Trop2 Ab Wild Type (antibody, human IgG1, kappa, human IgG1 constant region; also called Anti-Trop2 Mab; anti-TROP2 mAb) heavy: not shown light: DIQLTQSPSSLSASVGDRVSITCKASQDVSIAVAWYQQKPGKAPKLLIYSASYRYTGVPDRFSGSGSGTDFTLTISSLQPEDFAVYYCQQHYITPLTFGAGTKVEIKRTVAAPSVFIFPPSDEQLKSGTASVVCLLNNFYPREAKVQWKVDNALQSGNSQESVTEQDSKDSTYSLSSTLTLSKADYEKHKVYACEVTHQGLSSPVTKSFNRGEC		binds	binds	binds	~0.06 nM	EC50 (read off the curve) [8]: ~2 µg/mL; EC50 (read off the curve) [9]: ~0.08 µg/mL
Anti-Trop2 Ab L234A, L235A (antibody, human IgG1, kappa, L234A L235A, Fc variant; wild-type light chain; also called Anti-Trop2 Mab double mutant; double mutation L234A and L235A) heavy: not shown light: DIQLTQSPSSLSASVGDRVSITCKASQDVSIAVAWYQQKPGKAPKLLIYSASYRYTGVPDRFSGSGSGTDFTLTISSLQPEDFAVYYCQQHYITPLTFGAGTKVEIKRTVAAPSVFIFPPSDEQLKSGTASVVCLLNNFYPREAKVQWKVDNALQSGNSQESVTEQDSKDSTYSLSSTLTLSKADYEKHKVYACEVTHQGLSSPVTKSFNRGEC		binds		binds	~0.06 nM	EC50 (read off the curve) [5]: ~1 µg/mL; binding result [9]: binds
Anti-Trop2 Ab L328C (antibody, human IgG1, kappa, Fc variant; wild-type light chain; also called Anti-Trop2 Mab single mutant; single mutation L328C) heavy: not shown light: DIQLTQSPSSLSASVGDRVSITCKASQDVSIAVAWYQQKPGKAPKLLIYSASYRYTGVPDRFSGSGSGTDFTLTISSLQPEDFAVYYCQQHYITPLTFGAGTKVEIKRTVAAPSVFIFPPSDEQLKSGTASVVCLLNNFYPREAKVQWKVDNALQSGNSQESVTEQDSKDSTYSLSSTLTLSKADYEKHKVYACEVTHQGLSSPVTKSFNRGEC		binds	binds	binds	~0.06 nM	EC50 (read off the curve) [9]: ~0.2 µg/mL
Anti-Trop2 Ab L234A, L235A, L328C (antibody, human IgG1, kappa, L234A L235A, Fc variant; wild-type light chain; also called Anti-Trop2 Mab triple mutant; triple mutation L234A, L235A, and L328C) heavy: QVQLQQSGSELKKPGASVKVSCKASGYTFTNYGMNWVKQAPGQGLKWMGWINTYTGEPTYTDDFKGRFAFSLDTSVSTAYLQISSLKADDTAVYFCARGGFGSSYWYFDVWGQGSLVTVSSASTKGPSVFPLAPSSKSTSGGTAALGCLVKDYFPEPVTVSWNSGALTSGVHTFPAVLQSSGLYSLSSVVTVPSSSLGTQTYICNVNHKPSNTKVDKRVEPKSCDKTHTCPPCPAPEAAGGPSVFLFPPKPKDTLMISRTPEVTCVVVDVSHEDPEVKFNWYVDGVEVHNAKTKPREEQYNSTYRVVSVLTVLHQDWLNGKEYKCKVSNKACPAPIEKTISKAKGQPREPQVYTLPPSREEMTKNQVSLTCLVKGFYPSDIAVEWESNGQPENNYKTTPPVLDSDGSFFLYSKLTVDKSRWQQGNVFSCSVMHEALHNHYTQKSLSLSPGK light: DIQLTQSPSSLSASVGDRVSITCKASQDVSIAVAWYQQKPGKAPKLLIYSASYRYTGVPDRFSGSGSGTDFTLTISSLQPEDFAVYYCQQHYITPLTFGAGTKVEIKRTVAAPSVFIFPPSDEQLKSGTASVVCLLNNFYPREAKVQWKVDNALQSGNSQESVTEQDSKDSTYSLSSTLTLSKADYEKHKVYACEVTHQGLSSPVTKSFNRGEC		binds	binds	binds	~0.06 nM	binding result [8]: no binding (tested: 80 ug/ml); binding result [9]: no binding (tested: 30 ug/ml)
